Measured values reported in patent CN110954697A.

Experiments:
[1] = molecular target: 抗PD-1单链抗体与IgG4Fc片段融合蛋白 (anti-PD-1 scFv-IgG4 Fc fusion secreted by Meso3CAR-T-antiPD1 cells); test: flow cytometry on Meso3CAR-T-antiPD1 cells; 2 μL PE-labelled anti-IgG4 Fc antibody, read directly (these cells also carry Meso3CAR with an IgG4 CH2CH3 hinge)
[2] = molecular target: 抗PD-1单链抗体与IgG4Fc片段融合蛋白 (anti-PD-1 scFv-IgG4 Fc fusion secreted by Meso3CAR-T-antiPD1 cells); test: flow cytometry on Meso3CAR-T-antiPD1 cells; 2 μL of 1 mg/mL biotin-labelled reagent, streptavidin-PE

Sequence of 抗PD-1单链抗体与IgG4Fc片段融合蛋白 (anti-PD-1 scFv-IgG4 Fc fusion secreted by Meso3CAR-T-antiPD1 cells) (chain, as listed by the source): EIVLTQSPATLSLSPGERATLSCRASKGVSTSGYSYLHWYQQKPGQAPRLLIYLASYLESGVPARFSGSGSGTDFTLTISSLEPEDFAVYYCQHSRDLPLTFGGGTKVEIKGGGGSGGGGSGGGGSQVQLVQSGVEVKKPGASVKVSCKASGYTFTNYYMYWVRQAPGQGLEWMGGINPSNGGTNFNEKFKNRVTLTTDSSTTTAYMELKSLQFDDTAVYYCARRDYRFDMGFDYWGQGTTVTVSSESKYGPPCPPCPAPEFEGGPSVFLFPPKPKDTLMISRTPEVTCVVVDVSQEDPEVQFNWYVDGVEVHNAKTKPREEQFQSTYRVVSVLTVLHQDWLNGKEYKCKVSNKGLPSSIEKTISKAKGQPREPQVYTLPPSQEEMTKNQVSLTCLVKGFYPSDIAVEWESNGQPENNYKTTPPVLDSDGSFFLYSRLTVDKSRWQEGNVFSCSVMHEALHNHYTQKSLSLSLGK

Row | Substance | 阳性率 (percent positive cells) [1] [%] | 阳性细胞的比例 (percent positive cells) [2] [%]
1 | PE标记的抗IgG4Fc抗体 (PE-labelled anti-IgG4 Fc antibody), Abcam, 货号 ab99825 | 39.9 | –
2 | 抗PD-1抗体的抗体 (antibody against the anti-PD-1 antibody), 金斯瑞 GenScript, 货号 A01853-40, biotin-labelled | – | 31.6
